Measurements taken from patent publication US20250223354A1 (BIOTHEUS, published 2025).
Like-named read-outs stand apart in the source and are kept apart here. Values belong to the binder of their own block, whether it stands above or below them.

Columns and labels:
[1] = target: T1, human TIGIT expressed on cells (human, UniProt Q495A1 22-244); assay: flow cytometry, CHO-huTIGIT cells
T1 construct: whole, on cells; cDNA encoding human TIGIT in pCHO1.0 for CHO cells; also called CHO-huTIGIT cells
T1 sequence (looked up): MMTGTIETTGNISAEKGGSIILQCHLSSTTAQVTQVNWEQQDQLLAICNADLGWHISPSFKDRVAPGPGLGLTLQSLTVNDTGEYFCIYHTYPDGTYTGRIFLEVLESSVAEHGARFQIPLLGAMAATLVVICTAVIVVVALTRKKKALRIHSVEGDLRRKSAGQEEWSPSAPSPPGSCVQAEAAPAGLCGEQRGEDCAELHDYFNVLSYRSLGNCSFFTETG
From the text: (§1) Specifically, CHO cells overexpressing human TIGIT (CHO-huTIGITcells), CHO cells overexpressing cynomolgus TIGIT (CHO-cynoTIGIT cells) and CHO cells overexpressing mouse TIGIT (CHO-muTIGIT cells) were generated by transfection of the pCHO1.0 vector (purchased from Invitrogen) with cDNA encoding human TIGIT, cynomolgus TIGIT and mouse TIGIT cloned into the multiple cloning site (MCS), respectively, followed by pressure screening. The overexpressing cells were expanded and adjusted to an appropriate cell density, and added to a 96-well flow cytometry plate. After centrifugation, the cells were added with a gradiently diluted sample to be tested, and incubated at 4° C. for 30 minutes. The cells were washed twice with PBS, and added with a fluorescent secondary antibody correspondingly diluted to an appropriate concentration, then incubated at 4° C. for 30 minutes, and washed twice with PBS. Cells were resuspended with PBS, and detected on a CytoFlex flow cytometer, and the corresponding MFI was calculated. Graphpad software was used for graphical analysis to obtain EC₅₀ values.

[2] = target: T2, mouse TIGIT overexpressed on CHO cells (mouse, UniProt P86176 29-249); assay: flow cytometry, CHO-muTIGIT cells
T2 construct: whole, on cells; also called CHO-muTIGIT cells
T2 sequence (looked up): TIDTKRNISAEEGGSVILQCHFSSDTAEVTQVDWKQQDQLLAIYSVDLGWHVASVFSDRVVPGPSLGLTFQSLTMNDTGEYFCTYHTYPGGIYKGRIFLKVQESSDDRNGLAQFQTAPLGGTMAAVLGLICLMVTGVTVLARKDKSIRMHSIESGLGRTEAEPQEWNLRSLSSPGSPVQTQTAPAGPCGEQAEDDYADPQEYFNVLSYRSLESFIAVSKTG
From the text: as §1

[3] = target: T3, cynomolgus TIGIT overexpressed on CHO cells (cynomolgus, UniProt A0A7N9I9V4 89-312); assay: flow cytometry, CHO-cynoTIGIT cells
T3 construct: whole, on cells; also called CHO-cynoTIGIT cells
T3 sequence (A0A7N9I9V4 entry or part of it): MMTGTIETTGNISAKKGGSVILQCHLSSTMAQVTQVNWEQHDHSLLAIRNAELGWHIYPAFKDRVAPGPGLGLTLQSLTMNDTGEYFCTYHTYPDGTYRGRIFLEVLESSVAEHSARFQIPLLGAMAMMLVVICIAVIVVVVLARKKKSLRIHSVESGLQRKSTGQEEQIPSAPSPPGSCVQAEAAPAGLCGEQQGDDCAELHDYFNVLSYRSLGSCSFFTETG
From the text: as §1

human TIGIT-his protein [4] = target: T4, human TIGIT-his protein (human, UniProt Q495A1 22-141); assay: BLI (ForteBio), antibody on AHQ sensor, 100 nM antigen, monovalent, 1:1 model
T4 construct: not shown: his tag
T4 sequence: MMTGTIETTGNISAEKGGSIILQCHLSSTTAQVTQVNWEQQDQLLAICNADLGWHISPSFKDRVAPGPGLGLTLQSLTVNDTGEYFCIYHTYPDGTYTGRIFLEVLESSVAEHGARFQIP
Procedure: (§2) The antibody-loaded sensor was incubated in 100 nM target antigen to the plateau phase, and then the sensor was transferred to an analysis buffer and incubated for at least 2 minutes for measuring dissociation rate. The kinetic analysis was performed using a 1:1 binding model.

[5] = target: T5, cynomolgus monkey TIGIT-his protein (cynomolgus monkey); assay: as above
T5 construct: also called Cynomolgus TIGIT-his; not shown: his tag
T5 sequence (chain, as listed by the source): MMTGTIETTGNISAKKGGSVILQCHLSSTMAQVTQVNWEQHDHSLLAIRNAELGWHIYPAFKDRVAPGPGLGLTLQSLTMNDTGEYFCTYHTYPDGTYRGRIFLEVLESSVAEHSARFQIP
Procedure: as §2

[6] = target: T1, human TIGIT expressed on cells; assay: flow cytometry, competition with human CD155-mouse IgG2a Fc (2 ug/mL) on CHO-huTIGIT cells
Procedure: (§3) Specifically, the CHO-huTIGIT cells were expanded and adjusted to a cell density of 2×10⁶ cells/mL, added to a 96-well flow plate at 100 μL/well, and centrifuged for later use. The purified antibody was diluted 3-fold with PBS starting at 400 nM for a total of 12 concentration gradients. The diluted sample was added at 60 μL/well to the cells-carrying 96-well flow plate, and incubated at 4° C. for 30 minutes. […] APC-conjugated goat anti-mouse IgG antibody diluted 100-fold with PBS was added at 100 μL/well, incubated at 4° C. for 30 minutes, and washed twice with PBS. Cells were resuspended with PBS at 100 μL/well, and detected on a CytoFlex flow cytometer, and the corresponding MFI was calculated.

[7] = target: T2, mouse TIGIT overexpressed on CHO cells; assay: flow cytometry, competition with mouse CD155-mouse IgG2a Fc (2 ug/mL) on CHO-muTIGIT cells
Procedure: as §3, with “The CHO-muTIGIT” for “Specifically, the CHO-huTIGIT”, “calculated. Graphpad software was used for graphing analysis to obtain IC₅₀ values.” for “calculated.”

[8] = target: T1, human TIGIT expressed on cells; assay: flow cytometry, CHO-huTIGIT cells; remark: listed apart in the source
From the text: as §1, with “(CHO-huTIGIT cells),” for “(CHO-huTIGITcells),”

[9] = target: T2, mouse TIGIT overexpressed on CHO cells; assay: flow cytometry, CHO-muTIGIT cells; remark: listed apart in the source
From the text: as §1, with “(CHO-huTIGIT cells),” for “(CHO-huTIGITcells),”

[10] = target: T3, cynomolgus TIGIT overexpressed on CHO …; assay: flow cytometry, CHO-cynoTIGIT cells; remark: listed apart in the source
From the text: as §1, with “(CHO-huTIGIT cells),” for “(CHO-huTIGITcells),”

mouse TIGIT-his protein = target: T6, mouse TIGIT-his protein (mouse, UniProt P86176 29-148); assay: BLI (ForteBio), IgG on AHQ sensor, monovalent
T6 construct: not shown: his tag
T6 sequence: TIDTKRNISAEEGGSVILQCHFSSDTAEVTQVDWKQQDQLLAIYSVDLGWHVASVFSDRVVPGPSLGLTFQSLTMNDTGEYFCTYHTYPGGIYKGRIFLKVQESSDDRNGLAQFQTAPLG
Procedure: (§4) The antibody-loaded sensor was incubated in 100 nM TIGIT-his antigen to the plateau phase, and then the sensor was transferred to an analysis buffer and incubated for at least 2 minutes for measuring dissociation rate. The kinetic analysis was performed using a 1:1 binding model.

human TIGIT-his protein [11] = target: T4, human TIGIT-his protein; assay: BLI (ForteBio), IgG on AHQ sensor, 100 nM TIGIT-his, monovalent, 1:1 model
Procedure: (§5) Biofilm layer optical interference technology (ForteBio) was used to determine the binding and dissociation […] values of the anti-TIGIT monoclonal antibodies obtained in Example 1 to human, cynomolgus monkey and mouse TIGIT. Fortebio affinity measurements were performed according to existing methods (Este, P et al., High throughput solution-based measurement of antibody-antigen affinity and epitope binning. Mabs, 2013.5(2): p 270-8).
as §4

[12] = target: T5, cynomolgus monkey TIGIT-his protein; assay: as above
Procedure: as §5, §4

[13] = target: T1, human TIGIT expressed on cells; assay: flow cytometry, competition with human CD155-mouse IgG2a Fc (2 ug/mL) on CHO-huTIGIT cells; remark: listed apart in the source
Procedure: as §3, with “monoclonal antibodies were” for “antibody was”

[14] = target: T1, human TIGIT expressed on cells; assay: flow cytometry on activated human primary T cells (TIGIT), readout positive cell (%); unit from the concentration axis
From the text: The binding activity of the anti-TIGIT antibody of the present invention to TIGIT on the surface of activated T cells was detected based on the flow cytometry detection method.
Specifically, human PBMC were sorted according to the experimental protocol provided by […] Company (stemcell, Cat. No.: #17951C) to obtain human total T cells. […] The activated T cells were adjusted to an appropriate cell density and added to a 96-well flow cytometry plate. After centrifugation, the gradiently diluted sample to be tested was added, and incubated at 4° C. for 30 minutes. Washing was carried out twice with PBS, and a fluorescent secondary antibody diluted to an appropriate concentration was added, incubated at 4° C. for 30 minutes, and washed twice with PBS. […]

[15] = target: T1, human TIGIT expressed on cells; assay: flow cytometry on CHO cells overexpressing human TIGIT, median fluorescence intensity PE-A; unit from the concentration axis
From the text: as §1, with “(CHO-huTIGIT cells),” for “(CHO-huTIGITcells),”

[16] = target: T3, cynomolgus TIGIT overexpressed on CHO …; assay: flow cytometry on CHO cells overexpressing cynomolgus TIGIT, median fluorescence intensity PE-A; unit from the concentration axis
From the text: as §1, with “(CHO-huTIGIT cells),” for “(CHO-huTIGITcells),”

[17] = target: T1, human TIGIT expressed on cells; assay: flow cytometry blocking assay: binding of human CD155 protein with mouse IgG2a Fc tag to CHO cells overexpressing human TIGIT, median fluorescence intensity APC-A; unit from the concentration axis
Procedure: as §3, with “monoclonal antibodies were” for “antibody was”

- EC50 [1]: 1.43 nM
- EC50 [2]: 2.52 nM
- EC50 [3]: 1 nM
- Kd (human TIGIT-his protein [4]): 0.322 nM
- Kd [5]: 3.12 nM
- IC50 [6]: 0.425 nM
- IC50 [7]: 0.889 nM
B1: anti-TIGIT monoclonal antibody ADI-55796 (antibody, V domains shown)
VH: QLQLQESGPGLVKPAETLSLTCTVSGGSISSYDHYWTWIRQPPGKGLEWIGTVYYSGSTFHNPSLKSRVTIPVDTSKNQFSLKLSSVTAADTAVYYCARVGPDVSHPPFDYWGQGTLVTVSS
VL: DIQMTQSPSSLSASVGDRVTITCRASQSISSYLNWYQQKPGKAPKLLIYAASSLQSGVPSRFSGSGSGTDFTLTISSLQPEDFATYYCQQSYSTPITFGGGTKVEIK

- EC50 [1]: 0.964 nM
- binding result [2]: no binding
- EC50 [3]: 1.5 nM
- Kd (human TIGIT-his protein [4]): 1.9 nM
- Kd [5]: 34 nM
- IC50 [6]: 0.296 nM
B3: anti-TIGIT monoclonal antibody ADI-55812 (antibody, V domains shown)
VH: QVQLVQSGAEVKKPGASVKVSCKASGYAFTGYYMHWVRQAPGQGLEWMGSIIPFSGEANYAQKFQGRVTMTRDTSISTAYMELSRLRSDDTAVYYCARGPGSLDRLWYYYYGMDVWGQGTTVTVSS
VL: not shown

More lines, now with the values behind:

B2: anti-TIGIT monoclonal antibody 55812-G1 (antibody, human IgG1, V domains shown)
VH: QVQLVQSGAEVKKPGASVKVSCKASGYAFTGYYMHWVRQAPGQGLEWMGSIIPFSGEANYAQKFQGRVTMTRDTSISTAYMELSRLRSDDTAVYYCARGPGSLDRLWYYYYGMDVWGQGTTVTVSS
VL: not shown
notes: Wild-type human IgG1 heavy chain constant region, human kappa light chain constant region; HEK293
- EC50 [8]: 0.66 nM
- binding result [9]: no binding
- EC50 [10]: 1.13 nM
- binding result (mouse TIGIT-his protein): no binding (tested: 100 nM)
- Kd (human TIGIT-his protein [11]): 3.5 nM
- Kd [12]: 24.1 nM
- IC50 [13]: 0.36 nM
- EC50 [14]: 0.0517 nM
- EC50 [15]: 0.658 nM
- EC50 [16]: 1.12 nM
- IC50 [17]: 0.356 nM

B4: anti-TIGIT monoclonal antibody 55812-G1LALA (antibody, human IgG1, V domains shown)
VH: QVQLVQSGAEVKKPGASVKVSCKASGYAFTGYYMHWVRQAPGQGLEWMGSIIPFSGEANYAQKFQGRVTMTRDTSISTAYMELSRLRSDDTAVYYCARGPGSLDRLWYYYYGMDVWGQGTTVTVSS
VL: not shown
notes: Human IgG1 heavy chain constant region modified by L234A, L235A; human kappa light chain constant region; HEK293
- EC50 [8]: 0.7 nM
- binding result [9]: no binding
- EC50 [10]: 1.28 nM
- binding result (mouse TIGIT-his protein): no binding (tested: 100 nM)
- Kd (human TIGIT-his protein [11]): 3.4 nM
- Kd [12]: 22.1 nM
- IC50 [13]: 0.32 nM
- EC50 [14]: 0.057 nM
- EC50 [15]: 0.698 nM
- EC50 [16]: 1.28 nM
- IC50 [17]: 0.319 nM
